This note sets out measurements from patent EP1787997A1 (Genetics Institute, LLC, dated 2007).

Test [1] has as its target T1, human MU-1 Ig fusion protein (human, UniProt Q9HBE5 20-235).
T1 construct: A soluble fusion would most likely hold only the extracellular part; Immobilized on a Biacore chip; not shown: Ig part of the fusion
Description: Biacore, MU-1 Ig fusion immobilized on chip.

Test [2] concerns the target T2, murine MU-1 Ig fusion protein (murine, UniProt Q9JHX3 20-236).
T2 construct: It includes the predicted leader 1-19, the transmembrane domain 237-253 and the cytoplasmic domain; Immobilized on a Biacore chip; not shown: Ig part of the fusion
In words: Biacore, MU-1 Ig fusion immobilized on chip.

T1 sequence (Q9HBE5 20-235): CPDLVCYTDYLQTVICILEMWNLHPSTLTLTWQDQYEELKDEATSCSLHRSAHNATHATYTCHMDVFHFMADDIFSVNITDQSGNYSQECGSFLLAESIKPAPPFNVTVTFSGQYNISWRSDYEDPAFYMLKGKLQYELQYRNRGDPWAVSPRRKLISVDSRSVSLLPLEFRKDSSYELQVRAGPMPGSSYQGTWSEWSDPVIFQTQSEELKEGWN

B1: mIL-2 (ligand, mouse, UniProt P04351 21-169, looked up)
chain: APTSSSTSSSTAEAQQQQQQQQQQQQHLEQLLMDLQELLSRMENYRNLKLPRMLTFKFYLPKQATELKDLQCLEDELGPLRHVLDLTQSKSFQLEDAENFISNIRVTVVKLKGSDNTFECQFDDESATVVDFLRRWIAFCQSIISTSPQ
As to B1, the binding result in test [1] and in test [2] was “no binding” throughout.

B2: mIL-7 (ligand, mouse, UniProt P10168 26-154, looked up)
chain: ECHIKDKEGKAYESVLMISIDELDKMTGTDSNCPNNEPNFFRKHVCDDTKEAAFLNRAARKLKQFLKMNISEEFNVHLLTVSQGTQTLVNCTSKEEKNVKEQKKNDACFLKRLLREIKTCWNKILKGSI
In the case of B2, the binding result in test [1] and in test [2] was “no binding” each time.
